Tests used:
[1] = target: T1, human transferrin receptor 1 (human, UniProt P02786 89-760, limits assumed); assay: average KD, antibody alone; method not given
T1 construct: also called hTfR1; huTfR1

[2] = target: T2, cynomolgus monkey transferrin receptor 1 (cynomolgus monkey (Macaca fascicularis), UniProt Q5RDH6 89-760 (Pongo abelii entry), limits assumed); assay: average KD, antibody alone; method not given
T2 construct: also called cyTfR1; Cyno TfR1
T2 chain: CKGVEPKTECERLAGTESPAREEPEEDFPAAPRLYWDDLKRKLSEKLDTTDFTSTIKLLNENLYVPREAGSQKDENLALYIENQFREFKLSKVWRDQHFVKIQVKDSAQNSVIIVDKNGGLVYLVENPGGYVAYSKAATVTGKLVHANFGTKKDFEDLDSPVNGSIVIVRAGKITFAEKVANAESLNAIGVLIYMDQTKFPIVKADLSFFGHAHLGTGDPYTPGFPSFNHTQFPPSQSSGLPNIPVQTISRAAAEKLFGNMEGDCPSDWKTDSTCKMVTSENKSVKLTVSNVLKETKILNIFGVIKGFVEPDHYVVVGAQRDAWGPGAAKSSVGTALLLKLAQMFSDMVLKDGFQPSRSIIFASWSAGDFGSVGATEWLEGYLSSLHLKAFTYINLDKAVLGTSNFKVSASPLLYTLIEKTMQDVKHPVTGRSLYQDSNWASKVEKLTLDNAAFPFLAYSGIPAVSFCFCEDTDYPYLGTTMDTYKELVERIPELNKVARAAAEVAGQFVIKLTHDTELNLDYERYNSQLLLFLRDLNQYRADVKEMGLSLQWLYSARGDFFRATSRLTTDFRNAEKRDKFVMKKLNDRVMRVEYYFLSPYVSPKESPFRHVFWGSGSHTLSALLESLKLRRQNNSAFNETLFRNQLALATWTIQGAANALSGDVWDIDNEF

[3] = target: T1, human transferrin receptor 1; assay: Carterra LSA SPR array, IgG captured on anti-IgG lawn, hTfR1 as analyte, 25 C, 1:1 Langmuir fit
Description: Selected anti-TfR1 antibodies were tested for their binding affinity to human TfR1 for measurement of Ka (association rate constant), Kd (dissociation rate constant), and KD (affinity). […] The binding experiment was performed on Carterra LSA at 25 C. An anti-mouse IgG and anti-human IgG antibody “lawn” was prepared on a HC30M chip by amine coupling. 59 IgGs (58 mouse mAbs and 1 human mAb) were captured on the chip. Dilution series of hTfR1, cyTfR1, and hTfR2 were injected to the chip for binding (starting from 1000 nM, 1:3 dilution, 8 concentrations).
Binding data were referenced by subtracting the responses from a buffer analyte injection and globally fitting to a 1:1 Langmuir binding model for estimate of Ka (association rate constant), Kd (dissociation rate constant), and KD (affinity) using the Carterra™ Kinetics software. 5-6 concentrations were used for curve fitting.

T1 sequence (P02786 89-760 limits assumed): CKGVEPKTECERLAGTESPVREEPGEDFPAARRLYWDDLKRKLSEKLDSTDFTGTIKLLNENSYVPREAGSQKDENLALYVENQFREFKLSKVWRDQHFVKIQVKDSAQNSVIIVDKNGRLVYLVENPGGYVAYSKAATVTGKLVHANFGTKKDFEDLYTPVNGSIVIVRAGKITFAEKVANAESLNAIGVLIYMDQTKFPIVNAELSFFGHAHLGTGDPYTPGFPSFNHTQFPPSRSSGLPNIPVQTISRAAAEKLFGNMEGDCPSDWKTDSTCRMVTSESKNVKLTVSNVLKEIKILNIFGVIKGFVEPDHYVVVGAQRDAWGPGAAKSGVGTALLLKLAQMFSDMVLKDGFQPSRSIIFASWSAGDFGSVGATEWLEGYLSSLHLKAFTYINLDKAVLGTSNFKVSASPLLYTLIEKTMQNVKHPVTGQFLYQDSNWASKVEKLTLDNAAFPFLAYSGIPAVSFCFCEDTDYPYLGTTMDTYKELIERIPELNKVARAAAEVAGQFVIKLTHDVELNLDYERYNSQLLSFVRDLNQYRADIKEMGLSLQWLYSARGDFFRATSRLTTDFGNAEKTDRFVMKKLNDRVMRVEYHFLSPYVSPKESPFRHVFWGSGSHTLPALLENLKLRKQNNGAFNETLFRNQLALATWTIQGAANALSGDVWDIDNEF

B1: 3-E5 (antibody, V domains shown)
VH: EIQMKQSGAELVKPGASVKISCKASGYSFTGYNMNWVKQSHGKSLEWIGNINPYYGSTGYNQKFKGKATLTVDKSSSTAYMQLNSLTSEDSAVYYCARGDYGYDEGTWFAYWGQGTLVTVSA
VL: DIVMSQSPSSLAVSAGEKVTMSCKSSQSLLNSRTRKNYLAWYQQKPEQSPKLLIYWASTRESGVPDRFTGSGSGTDFTLTISSVQAEDLAVYYCKQSYNLPFTFGSGTKLEIK
notes: Tested as a mouse monoclonal IgG; also called 3-E05
[1]
  Kd: 0.455 nM
[2]
  Kd: 0.671 nM
[3]
  Kd: 0.455 nM
  kon: 22000 M⁻¹ s⁻¹

B2: 9-K23 (antibody, V domains shown)
VH: QVTLKESGPGMLQPSQTLSLTCSFSGFSLNTYDVGVGWIRQPSGKGLEWLANIWWNDDKYYNSALKSRLTISKDTSNNQVFLKISSVDTADTATYYCTLYSYDGGFAYWGQGTLVTVSA
VL: QIVLTQSPAIMSASLGERVTMTCTASSSVSSSYLHWYQQKPGSSPKLWIYSTSNLASGVPARFSGSGSGTSYSLTISSMEAEDAATYYCHQYHRSPYTFGGGTKLEIK
notes: Tested as a mouse monoclonal IgG
[1]
  Kd: 0.32 nM
[2]
  Kd: 0.662 nM
[3]
  Kd: 0.401 nM
  kon: 54000 M⁻¹ s⁻¹

B3: 9-D4 (antibody, V domains shown)
VH: QVQLQQSGTELARPGASVKLSCKASGFTFTDYGINWVKQRTGQGLEWIGEIYPSSGNSYYNEKFKAKATLTADKSSSTAYMELRSLTSEDSAVYFCARSTYYGSPIDYWGQGTTLTVSS
VL: DIVMTQSHKFMSTPVGDRVSITCKASQDVDTTVAWYQQKPGQSPKLLIYWASTRQIGVPDRFTGSGSGTDFTLTISNVQSEDLADYFCQQYSTYPLTFGGGTKLEIK
notes: Tested as a mouse monoclonal IgG; also called 9-D04
[1]
  Kd: 5.8 nM
[2]
  Kd: 0.868 nM
[3]
  Kd: 5.86 nM
  kon: 42000 M⁻¹ s⁻¹

B4: 3-A4 (antibody, V domains shown)
VH: EVQLQQSGAELVRPGASVKLSCTASGFNIKDDYMYWVKQRPEQGLEWIGWIDPENGDTEYASKFQDKATVTADTSSNTAYLQLSSLTSEDTAVYYCTLWLRRGLDYWGQGTSVTVSS
VL: DIVMTQAAPSVPVTPGESVSISCRSSKSLLHSNGYTYLFWFLQRPGQSPQLLIYRMSNLASGVPDRFSGSGSGTAFTLRISRVEAEDVGVYYCMQHLEYPFTFGGGTKLEIK
notes: Tested as a mouse monoclonal IgG; also called 3-A04
[1]
  Kd: 0.436 nM
[2]
  Kd: 2.32 nM
[3]
  Kd: 0.436 nM
  kon: 447000 M⁻¹ s⁻¹

B5: 5-H12 (antibody, V domains shown)
VH: QIQLQQSGPELVRPGASVKISCKASGYSFTDYCINWVNQRPGQGLEWIGWIYPGSGNTRYSERFKGKATLTVDTSSNTAYMQLSSLTSEDSAVYFCAREDYYPYHGMDYWGQGTSVTVSS
VL: DIVLTQSPTSLAVSLGQRATISCRASESVDGYDNSFMHWYQQKPGQPPKLLIFRASNLESGIPARFSGSGSRTDFTLTINPVEAADVATYYCQQSSEDPWTFGGGTKLEIK
notes: as for B2
[1]
  Kd: 202 nM
[2]
  Kd: 12 nM
[3]
  Kd: 208 nM
  kon: 66700 M⁻¹ s⁻¹

B6: 9-C4 (antibody, V domains shown)
VH: EVQLMESGGDLVKPGGSLKLSCAASGFTFSSYGLSWVRQTPDKRLEWVATITSGGSYTYYPDSVKGRFTISRDNARNTLYLQMFSLKSEDTAMYYCALWSLDYWGQGTTLTVSS
VL: QIVLTQSPAIMSASPGEKVTMTCSANSSLSYMHWYQQKPGTSPKRWIYDTSELASGVPARFSGSGSGTSYSLTISSMEAEDAATYYCHQRRSYPWTFGGGTKLEIK
notes: Tested as a mouse monoclonal IgG; also called 9-C04
[1]
  Kd: 14.8 nM
[2]
  Kd: 12 nM
[3]
  Kd: 14.1 nM
  kon: 41000 M⁻¹ s⁻¹

B7: 3-M12 (antibody, V domains shown)
VH: DVQLQESGPGLVKPSQSLSLTCSVTGYSITSGYYWNWIRQFPGNKLEWMGYITFDGANNYNPSLKNRISITRDTSKNQFFLKLTSVTTEDTATYYCTRSSYDYDVLDYWGQGTTLTVSS
VL: DIQMTQTTSSLSASLGDRVTISCRASQDISNFLNWYQQRPDGTVKLLIYYTSRLHSGVPSRFSGSGSGTDFSLTVSNLEQEDIATYFCQQGHTLPYTFGGGTKLEIK
notes: as for B2
[1]
  Kd: 0.768 nM
[2]
  Kd: 5.18 nM
[3]
  Kd: 0.768 nM
  kon: 166000 M⁻¹ s⁻¹

Reference: patent publication US20230144436A1 (DYNE THERAPEUTICS, published 2023)
